{
  "source": "the RNAGym collection of RNA variant scans (doi:10.1073/pnas.2313332121)",
  "parents": {"B1": {"name": "TPR t1 (parent)", "chain": "GACCAAUCUGCCCUCAGAGCUCGAGAACAUCUUCGGAUGCAGAGGAGGCAGGCUUCGGUGGCGCGAUAGCGCCAACGUCCUCAACCUCCAAUGCAUCCCACCACAUGAUGAUGCCUGAAGAGCCUUGGUUUUUUG"}},
  "data": [
    {"variants_of": "B1", "assay": "polymerase ribozyme fitness, log enrichment relative to wild type (log ratio); higher = more active; in vitro selection for triplet polymerase activity", "method_in_brief": "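A single round of triplicate in vitro selection, including frozen incubation at −7 °C, was applied to PCR-built, transcribed mutant libraries of each subunit of a heterodimeric triplet polymerase ribozyme. Illumina sequencing of input and output libraries retained genotypes with ≥10 input reads and ≥1 read per output. Fitness is the base-2 logarithm of genotype enrichment divided by wild-type enrichment, from inverse-variance-weighted replicate averages.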", "values": [
      {"variant": "GACCAAUCUGCCCUCAGAGCUCGAGAACAUCUUCGGAUGCAGAGGAGGCAGGCUUCGGUGGCGCGAUAGCGCCAACGUCCUCAACCCCCAAUGCAUCCCACCACAUGAUUAUGCCUGAAGAGCCUUGGUUUUUUG", "polymerase ribozyme fitness (log ratio)": -0.496},
      {"variant": "GACCAAUCUGCCCUCAGAGCUCGAGAACAUCUUCGGAUGCAGAGGAGGCAGGCUUCGGUGGCGCGAUAGCGCCAACGUCCUCAACCCCCAAUGCAACCCACCACAUGAUGAUGCCUGAAGAGCCUUGGUUUUUUG", "polymerase ribozyme fitness (log ratio)": 0.252},
      {"variant": "GACCAAUCUGCCCUCAGAGCUCGAGAACAUCUUCGGAUGCAGAGGAGGCAGGCUUCGGUGGCGCGAUAGCGCCAACGUCCUCAACCCCCAAUGCAUCCCACCACAUGAUGAUGCCUGAAGAGCCUGGGUUUUUUG", "polymerase ribozyme fitness (log ratio)": -1.22},
      {"variant": "GACCAAUCUGCCCUCAGAGCUCGAGAACAUCUUCGGAUGCAGAGGAGGCAGGCUUCGGUGGCGCGAUAGCGCCAACGUCCUCAACCGCCAAUGCAUCCCACCACAUGAUGAUGCCUGAGGAGCCUUGGUUUUUUG", "polymerase ribozyme fitness (log ratio)": 1.67},
      {"variant": "GACCAAUCUGCCCUCAGAGCUCGAGAACAUCUUCGGAUGCAGAGGAGGCAGGCUUCGGUGGCGCGAUAGCGCCAACGUCCUCAACCGCCAAUGAAUCCCACCACAUGAUGAUGCCUGAAUAGCCUUGGUUUUUUG", "polymerase ribozyme fitness (log ratio)": -0.366},
      {"variant": "GACCAAUCUGCCCUCAGAGCUCGAGAACAUCUUCGGAUGCAGAGGAGGCAGGCUUCGGUGGCGCGAUAGCGCCAACGUCCUCAACCGCCAAUGCAUCCCACCACAUGAUGAUCCCUGAAGAGCCUUGGUUUUUUG", "polymerase ribozyme fitness (log ratio)": -2.26},
      {"variant": "GACCAAUCUGCCCUCAGAGCUCGAGAACAUCUUCGGAUGCAGAGGAGGCAGGCUUCGGUGGCGCGAUAGCGCCAACGUCCUCAACCGCCAAUGCAUCCCACCACAUGAUGAUGCCUGAAAAGCCUUGGUUUUUUG", "polymerase ribozyme fitness (log ratio)": 0.0419},
      {"variant": "GACCAAUCUGCCCUCAGAGCUCGAGAACAUCUUCGGAUGCAGAGGAGGCAGGCUUCGGUGGCGCGAUAGCGCCAACGUCCUCAACCGCCAAAGCAUCCCACCACAUGAUAAUGCCUGAAGAGCCUUGGUUUUUUG", "polymerase ribozyme fitness (log ratio)": -4.75},
      {"variant": "GACCAAUCUGCCCUCAGAGCUCGAGAACAUCUUCGGAUGCAGAGGAGGCAGGCUUCGGUGGCGCGAUAGCGCCAACGUCCUCAACCGCCAAUGCAUCCCACCACAGGAUGAUGCCUGAAGAGCCUUGGUUUUUUG", "polymerase ribozyme fitness (log ratio)": -1.41},
      {"variant": "GACCAAUCUGCCCUCAGAGCUCGAGAACAUCUUCGGAUGCAGAGGAGGCAGGCUUCGGUGGCGCGAUAGCGCCAACGUCCUCAACCGCCAAUGCAUCCCACCACAUGAAGAUGCCUGAAGAGCCUUGGUUUUUUG", "polymerase ribozyme fitness (log ratio)": -3.08},
      {"variant": "GACCAAUCUGCCCUCAGAGCUCGAGAACAUCUUCGGAUGCAGAGGAGGCAGGCUUCGGUGGCGCGAUAGCGCCAACGUCCUCAACCGCCAAUGCAUCCCACCACAUGAUGAUGCCUGAAGAGCCUUGGCUUUUUG", "polymerase ribozyme fitness (log ratio)": 0.0365},
      {"variant": "GACCAAUCUGCCCUCAGAGCUCGAGAACAUCUUCGGAUGCAGAGGAGGCAGGCUUCGGUGGCGCGAUAGCGCCAACGUCCUCAACCUACAAUGCAUCCCACCACAUGAUGAUGCCUGAAGAGCCUUGGUUUUUUG", "polymerase ribozyme fitness (log ratio)": -0.325},
      {"variant": "GACCAAUCUGCCCUCAGAGCUCGAGAACAUCUUCGGAUGCAGAGGAGGCAGGCUUCGGUGGCGCGAUAGCGCCAACGUCCUCAACCUACAAUGCAUCCCACCACAUGAUGUUGCCUGAAGAGCCUUGGUUUUUUG", "polymerase ribozyme fitness (log ratio)": -4.33},
      {"variant": "GACCAAUCUGCCCUCAGAGCUCGAGAACAUCUUCGGAUGCAGAGGAGGCAGGCUUCGGUGGCGCGAUAGCGCCAACGUCCUCAACCUACAAUGAAUCCCACCACAUGAUGAUGCCUCAAGAGCCUUGGUUUUUUG", "polymerase ribozyme fitness (log ratio)": -5.02},
      {"variant": "GACCAAUCUGCCCUCAGAGCUCGAGAACAUCUUCGGAUGCAGAGGAGGCAGGCUUCGGUGGCGCGAUAGCGCCAACGUCCUCAACCUACAAUGGAUCCCACCACAUGAUGACGCCUGAACAGCCUUGGUUUUUUG", "polymerase ribozyme fitness (log ratio)": -1.09},
      {"variant": "GACCAAUCUGCCCUCAGAGCUCGAGAACAUCUUCGGAUGCAGAGGAGGCAGGCUUCGGUGGCGCGAUAGCGCCAACGUCCUCAACCUACAAUGCAUCCCAUCACAUGAUGAUGCCUGAAGAGCCUUGGUUUUUUG", "polymerase ribozyme fitness (log ratio)": -0.505},
      {"variant": "GACCAAUCUGCCCUCAGAGCUCGAGAACAUCUUCGGAUGCAGAGGAGGCAGGCUUCGGUGGCGCGAUAGCGCCAACGUCCUCAACCUACAAUGCAUCCCACCACAUGAUGAUGCUUGAAGAGCCUUGGUUUUUUG", "polymerase ribozyme fitness (log ratio)": -0.599},
      {"variant": "GACCAAUCUGCCCUCAGAGCUCGAGAACAUCUUCGGAUGCAGAGGAGGCAGGCUUCGGUGGCGCGAUAGCGCCAACGUCCUCAACCUACAAUGCAUCCCACCACAUGAUGAUCCCUGAAGAACCUUGGAUUUUUG", "polymerase ribozyme fitness (log ratio)": -5.29},
      {"variant": "GACCAAUCUGCCCUCAGAGCUCGAGAACAUCUUCGGAUGCAGAGGAGGCAGGCUUCGGUGGCGCGAUAGCGCCAACGUCCUCAACCUACAAUGCAUCCCACCACAUGAUGAUGCCUGAAGAGCCUUGGUUUUUUU", "polymerase ribozyme fitness (log ratio)": -0.929},
      {"variant": "GACCAAUCUGCCCUCAGAGCUCGAGAACAUCUUCGGAUGCAGAGGAGGCAGGCUUCGGUGGCGCGAUAGCGCCAACGUCCUCAACCUACAAUGCACCCCACCACAUGAUGAUGCCUGAAGAGCCUUGGUUUUUUG", "polymerase ribozyme fitness (log ratio)": -0.897},
      {"variant": "GACCAAUCUGCCCUCAGAGCUCGAGAACAUCUUCGGAUGCAGAGGAGGCAGGCUUCGGUGGCGCGAUAGCGCCAACGUCCUCAACCUACAAUGCAGCCCACCACAUGAUGAUGCCUGAAGAGCCUUGGUUUUUUG", "polymerase ribozyme fitness (log ratio)": -0.386}
    ]}
  ]
}
